In patent publication US20120316071A1 (published 2012) one finds ECL signal data, which are given here for two molecules.

Substitutions are numbered along the chain they refer to. Numbers in names are those of the source.

For assay [1], the target named is T1, rHuman Erythropoietin R/Fc Chimera, CF (R&D Systems Cat#963-ER) (human, UniProt P19235 25-250).
T1 construct: Bought recombinant protein; also called EPO R; EPO R/Fc
The experiment in a line: ECL multispot (MSD) assay, antigen spotted on plate, Fab in solution; blank spot of this well 204.

The target of assay [2] is T2, rHuman EGF R/Fc Chimera, CF (R&D Systems Cat#344-ER) (human, UniProt P00533 25-645).
T2 construct: Bought recombinant protein; also called epidermal growth factor receptor
The description is as above.

Assay [3] concerns the target T3, rHuman HGF R/c-MET/Fc Chimera, CF (R&D Systems Cat#358-MT/CF) (human, UniProt P08581 25-932).
T3 construct: Bought recombinant protein; also called HGF R/Fc; hepatocyte growth factor receptor
The description is as above.

In assay [4] the target is T4, rHuman Notch-1/Fc Chimera, CF (R&D Systems Cat#3647-TK) (human).
T4 construct: Bought recombinant protein
Described as above.

The target in assay [5] is T5, rHuman CD44/Fc Chimera, CF (R&D Systems Cat#3660-CD) (human, UniProt P16070 21-220).
T5 construct: Bought recombinant protein
The description is as above.

The target in assay [6] is T6, rHuman ErbB2/Fc Chimera, CF (R&D Systems Cat#1129-ER) (human, UniProt P04626 23-652).
T6 construct: Bought recombinant protein; also called human epidermal growth factor 2 receptor
Described as above.

The target of assay [7] is T7, rHuman IGF-1 sR (insulin-like growth factor-1 soluble receptor), CF (R&D Systems Cat#391-GR) (human, UniProt P08069 31-932).
T7 construct: Bought recombinant soluble receptor
The assay is described as above.

For assay [8], the target named is T8, Recombinant Human DLL4 (R&D Systems Cat#1506-D4/CF) (human, UniProt Q9NR61 27-524).
T8 construct: Bought recombinant protein; also called delta-like protein 4; rHuman DLL4
Described as above.

The target of assay [9] is T9, rHuman P-Cadherin/Fc Chimera, CF (R&D Systems Cat#861-PC) (human, UniProt P22223 108-654).
T9 construct: Bought recombinant protein
The description is as above.

Assay [10] concerns the target T1, rHuman Erythropoietin R/Fc Chimera, CF …. Briefly: ECL multispot (MSD) assay, antigen spotted on plate, Fab in solution; blank spot of this well 271.
For assay [11], the target named is T2, rHuman EGF R/Fc Chimera, CF (R&D …). The description is as above.
For assay [12], the target named is T3, rHuman HGF R/c-MET/Fc Chimera, CF (R&D …). Described as above.
Assay [13] concerns the target T4, rHuman Notch-1/Fc Chimera, CF (R&D …). The assay is described as above.
Assay [14] deals with T5, rHuman CD44/Fc Chimera, CF (R&D Systems …). The description is as above.
Assay [15] deals with T6, rHuman ErbB2/Fc Chimera, CF (R&D …). The assay is described as above.
The target in assay [16] is T7, rHuman IGF-1 sR (insulin-like growth …). Described as above.
Assay [17] deals with T8, Recombinant Human DLL4 (R&D Systems …). The description is as above.
Assay [18] addresses T9, rHuman P-Cadherin/Fc Chimera, CF (R&D …). The description is as above.
For assay [19], the target named is T1, rHuman Erythropoietin R/Fc Chimera, CF …. The experiment in a line: ECL multispot (MSD) assay, antigen spotted on plate, Fab in solution; blank spot of this well 224.
Assay [20] deals with T2, rHuman EGF R/Fc Chimera, CF (R&D …). The assay is described as above.
For assay [21], the target named is T3, rHuman HGF R/c-MET/Fc Chimera, CF (R&D …). The description is as above.
For assay [22], the target named is T4, rHuman Notch-1/Fc Chimera, CF (R&D …). The description is as above.
Assay [23] concerns the target T5, rHuman CD44/Fc Chimera, CF (R&D Systems …). The description is as above.
The target in assay [24] is T6, rHuman ErbB2/Fc Chimera, CF (R&D …). The assay is described as above.
Assay [25] has as its target T7, rHuman IGF-1 sR (insulin-like growth …). Described as above.
Assay [26] concerns the target T8, Recombinant Human DLL4 (R&D Systems …). The description is as above.
Assay [27] deals with T9, rHuman P-Cadherin/Fc Chimera, CF (R&D …). The description is as above.
The target of assay [28] is rHuman P-Cadherin/Fc Chimera, CF (R&D Systems Cat#861-PC) (human, UniProt P22223 108-654). Briefly: ECL multispot (MSD) assay, antigen spotted on plate, Fab in solution; blank spot of this well 270.
Assay [29] concerns the target rHuman Erythropoietin R/Fc Chimera, CF (R&D Systems Cat#963-ER) (human, UniProt P19235 25-250). The description is as above.
Assay [30] deals with T10, rHuman Notch-1/Fc Chimera, CF (R&D Systems Cat#3647-TK) (human).
T10 chain: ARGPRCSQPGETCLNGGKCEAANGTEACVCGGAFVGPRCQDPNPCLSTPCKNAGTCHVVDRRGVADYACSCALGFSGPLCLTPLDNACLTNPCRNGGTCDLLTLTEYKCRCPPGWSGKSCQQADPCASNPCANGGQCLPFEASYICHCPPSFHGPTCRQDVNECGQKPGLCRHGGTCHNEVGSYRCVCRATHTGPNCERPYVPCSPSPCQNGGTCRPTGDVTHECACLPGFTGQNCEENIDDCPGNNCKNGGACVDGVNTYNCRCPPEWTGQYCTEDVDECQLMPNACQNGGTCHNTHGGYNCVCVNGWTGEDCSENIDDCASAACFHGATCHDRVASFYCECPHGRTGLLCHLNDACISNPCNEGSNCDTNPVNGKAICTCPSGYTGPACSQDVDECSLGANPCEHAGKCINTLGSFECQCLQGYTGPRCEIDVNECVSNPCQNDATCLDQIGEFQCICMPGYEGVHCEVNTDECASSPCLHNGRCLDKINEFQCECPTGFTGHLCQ
The assay is described as above.

Assay [31] concerns the target rHuman CD44/Fc Chimera, CF (R&D Systems Cat#3660-CD) (human, UniProt P16070 21-220). The description is as above.
The target in assay [32] is rHuman HGF R/c-MET/Fc Chimera, CF (R&D Systems Cat#358-MT/CF) (human, UniProt P08581 25-932). Described as above.

B1: Fab VH1-46_IGHD6-6*01_IGHJ1*01 S102A/S103P/S104F (APF) & L6_IGKJ1*01 (Fab, V domains shown)
VH: QVQLVQSGAEVKKPGASVKVSCKASGYTFTSYYMHWVRQAPGQGLEWMGIINPSGGSTSYAQKFQGRVTMTRDTSTSTVYMELSSLRSEDTAVYYCAREEYAPFSAEYFQHWGQGTLVTVSS
VL: not shown
notes: Fab made in E. coli (heavy chain in plasmid A with CH1, His6 and Flag tags; kappa light chain in plasmid C); also called APF / parent; H:APF & L:wt
Consider B1, for which the ECL signal in assay [1] amounted to 329; in assay [2], 237; in assay [3], 272; in assay [4], 334; in [5], 96; in [6], 157. In addition, the ECL signal in assay [7] stood at 197; in [8], 2120; in [9] it was 208; in [10], 304; in assay [11], 272; in [12], 306. Further, the ECL signal worked out at 257 in assay [13]; 189 in assay [14]; 330 in assay [15]; 241 in assay [16]; 3480 in [17]; 297 in assay [18]. The ECL signal in assay [19] amounted to 0; in [20], 279; in assay [21] it was 275; in assay [22], 171; in [23] it was 197; in [24], 149. Also, the ECL signal was 168 in assay [25], 2830 in [26] and 171 in assay [27].

B2: Fab VH1-46_IGHD6-6*01_IGHJ1*01 S102A/S103P/S104F/H111F (APFF) & L6_IGKJ1*01 N93Y (Fab, V domains shown)
VH: B1 VH with H111F
VL: EIVLTQSPATLSLSPGERATLSCRASQSVSSYLAWYQQKPGQAPRLLIYDASNRATGIPARFSGSGSGTDFTLTISSLEPEDFAVYYCQQRSYWPPWTFGQGTKVEIKR
notes: Fab made in E. coli (heavy chain in plasmid A with CH1, His6 and Flag tags; kappa light chain in plasmid C); also called APFF / N93Y
On to B2, for which the ECL signal was determined as 499 in [28]; 541 in assay [29]; 453 in [30]; 333 in [31]; 380 in assay [32].
